Assay results from patent US20240343781A1 (TRUSTEES OF COLUMBIA UNIVERSITY IN THE CITY OF NEW YORK, published 2024).

B1: engineered monoclonal antibody 11-11 (antibody, V domains shown)
VH: QVQLQESGPGLVKPSQTLSLTCTVSGGSISSGGYYWSWIRQHPGKGLEWIGYIYYSGSTYYNPSLKSRVTISVDTSKNQFSLKVSSVTAADTAVYYCASSNYYDGSGYNLLESYGMDVWGQGTSVTVSS
VL: QSVLTQPPSVSGAPGQRVTISCTGSSSNIGAGYDVHWYQQLPGTAPKLLIYGNSNRPSGVPDRFSGSRSGTSASLAITGLQAEDEADYYCQSYDSSLSGSWVFGGGTKVTVL
B2: engineered monoclonal antibody 10-40 (antibody, V domains shown)
VH: QLQLQESGPGLVKPSETLSLTCTVSGGSISSSNFYWGWIRQPPGKGLEWIASITYSGRTFYNPSLKSRVAISVDTSKNQFSLKLSSVTAADTAVYYCARTFPSYYDRSGYHYLNYGMDVWGQGTTVTVSS
VL: NFMLTQPHSMSESPGKTVTISCTRSSGSIASNYVQWYQQRPGSSPTTVIYEDNQRPSGVPDRFSGSIDSSSNSASLTISGLKTEDEADYYCQSYDSSSWVFGGGTKLTVL

Target: SARS-COV spike on pseudovirus (SARS-CoV, UniProt P59594 14-1255)
Assay: cell-based or functional assay

Binder	IC50, neutralization of pseudoviruses [µg/mL]
B1	0.025
B2	0.019
